Data from publication PMC10659578, “Mechanism of stepwise electron transfer in six-transmembrane epithelial antigen of the prostate (STEAP) 1 and 2” (eLife, 2023).

Target: the molecule itself
Test: SEC; purified hSTEAP2 on an SRT-3C SEC-300 column in 20 mM HEPES, 150 mM NaCl, 0.01% LMNG; single peak

B1: Human six-transmembrane epithelial antigen of the prostate 2 (STEAP2) (natural protein)
chain: MESISMMGSPKSLSETFLPNGINGIKDARKVTVGVIGSGDFAKSLTIRLIRCGYHVVIGSRNPKFASEFFPHVVDVTHHEDALTKTNIIFVAIHREHYTSLWDLRHLLVGKILIDVSNNMRINQYPESNAEYLASLFPDSLIVKGFNVVSAWALQLGPKDASRQVYICSNNIQARQQVIELARQLNFIPIDLGSLSSAREIENLPLRLFTLWRGPVVVAISLATFFFLYSFVRDVIHPYARNQQSDFYKIPIEIVNKTLPIVAITLLSLVYLAGLLAAAYQLYYGTKYRRFPPWLETWLQCRKQLGLLSFFFAMVHVAYSLCLPMRRSERYLFLNMAYQQVHANIENSWNEEEVWRIEMYISFGIMSLGLLSLLAVTSIPSVSNALNWREFSFIQSTLGYVALLISTFHVLIYGWKRAFEEEYYRFYTPPNFVLALVLPSIVILGKIILFLPCISRKLKRIKKGWEKSQFLEEGMGGTIPHVSPERVTVM
notes: N-terminal residues 1-27, residues 332-353 and C-terminal residues 470-490 are unresolved in the map, which implies a 490-residue chain; Homotrimer with heme; The cryo-EM sample was in GDN with FAD and NADP+; Residues of the TEV site may remain at the C-terminus after cleavage; also called hSTEAP2; not shown: His6, C-terminal, cleaved
stoichiometry N: 3
